In this test the target is NtermRGS2-GFP-CIBN (R2helix-CIBN component of opto-RGS2, GFP-tagged). The test can be described thus: light-induced membrane translocation.

“CRY2-mCherry-(GGGGS)3-RGS2box (CRY2-R2box component of opto-RGS2)” showed a τoff (time constant of dark reversion from the membrane) of 396 s and a τon (time constant of light-induced membrane translocation) of 19.7 s.

Values taken from paper PMC6311707.
